Test results published in patent publication US20040121386.

Legend:
[1] = tested on: T1, His-tagged MKK7γ1
T1 sequence: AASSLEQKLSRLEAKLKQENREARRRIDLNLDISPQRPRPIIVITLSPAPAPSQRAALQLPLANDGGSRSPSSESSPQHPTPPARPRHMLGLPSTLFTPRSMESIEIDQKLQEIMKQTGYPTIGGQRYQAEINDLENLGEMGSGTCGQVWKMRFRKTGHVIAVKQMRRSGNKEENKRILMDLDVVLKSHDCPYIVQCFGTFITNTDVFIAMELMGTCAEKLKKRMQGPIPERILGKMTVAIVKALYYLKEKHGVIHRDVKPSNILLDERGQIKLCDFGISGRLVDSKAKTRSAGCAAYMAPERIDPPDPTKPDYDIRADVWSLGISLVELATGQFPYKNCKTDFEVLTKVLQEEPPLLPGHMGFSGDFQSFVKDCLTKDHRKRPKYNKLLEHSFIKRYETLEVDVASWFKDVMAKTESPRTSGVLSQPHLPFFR

[2] = tested on: unactive MKK7β1 (UBI)
[3] = tested on: unactive JNK1 (Upstate, Inc.)

Substance	phosphorylation in a two-step cascade kinase assay (γ-32P-ATP, SDS/PAGE, autoradiography) [1]	phosphorylation in a two-step cascade kinase assay (γ-32P-ATP, SDS/PAGE, autoradiography) [2]	phosphorylation in a two-step cascade kinase assay (γ-32P-ATP, SDS/PAGE, autoradiography) [3]
Active MEKK1 (Upstate, Inc.)	The His-tagged MKK7γ1 protein and the MKK7β1 protein was phosphorylated by MEKK1	The His-tagged MKK7γ1 protein and the MKK7β1 protein was phosphorylated by MEKK1	
unactive MKK7β1 (UBI)			in turn was able to phosphorylate JNK1
